Reference: publication PMC10028186

Tested on: Strep-msIHF (mycobacterial integration host factor) (Mycobacterium smegmatis mc2 155)
Assay: BLI
Settings: BLI: PBS with 50 mM Tris-HCl pH 7.5, 150 mM NaCl, 0.1 mg/ml BSA, 0.05% Tween-20, 30 C. EMSA: 50 mM Tris-HCl pH 8, 150 mM NaCl, 10 mM Mg acetate, 0.02% …

Substance	Kd
attB fragment	250 nM
oriC fragment	270 nM
